Results from US20030077740A1, “Presenilin/Crk binding polypeptides (PCBP) and methods of use thereof” (priority 2001, published 2003).

Assays:
[1] = target: T1, large hydrophilic loop of PS1 (Homo sapiens, UniProt P49768); experiment: co-immunoprecipitation in 293T cells, PS1 loop; format: binding; settings: immunoprecipitation with anti-TAG, 48 hrs after transfection, PS1-FLAG loop
T1 construct: and a large hydrophilic loop (amino acids 263-407); expressed in transfected cells; host or cells: 293T human kidney cells, pCIS2 expression vector
Method: To confirm the yeast two-hybrid data, the interaction between PBP and PSs was assayed in mammalian cells by immunoprecipitation. Human kidney 293-T cells, and monkey kidney COS-7 cells were cultured in Dulbecco's modified Eagle's medium supplemented with 10% fetal calf serum at 37° C. in a 10% CO2 atmosphere. A nine-amino acid TAG epitope ([…]) (SEQ ID NO:6) was incorporated in-frame at the 3′ end of the PBP cDNA (PBP-TAG), and an eight amino acid FLAG epitope ([…]) (SEQ ID NO:7) was attached in frame at the 5′ end of the large hydrophilic loop of PS1 cDNA and at the 3′ end of full length PS1 cDNA as described previously (Kimura, H., Proc. Natl. Acad. Sci. (USA), 90:2165-2169 (1993)). The resulting fragments were inserted into the pCIS2 expression vector (Genentech, San Francisco, Calif.) for transient or constitutive expression. […]
For immunoprecipitation of the large hydrophilic loop of PSs or Crk with PBP, cells were lysed in RIPA buffer (100 mM NaCl, 0.5% NP-40, 0.5% DOC, 0.1% SDS, 50 mM Tris, pH 7.5, 1 mM PMSF and 1 μg/ml aprotinin, 1 μg/l leupeptin) on ice for 30 min. […] The bound antibodies were detected by the ECL-plus chemiluminescence system (Amersham, Arlington Heights, Ill.).

[2] = target: T2, PS1 (Homo sapiens, UniProt P49768, L392V); experiment: yeast two-hybrid interaction with PS1; format: binding; settings: yeast two-hybrid system
T2 construct: the large hydrophilic loop region of PS1 (amino acids 1-81, 429-468, 263-407, respectively) were inserted into the pGBT9 vector; expressed in transfected cells; host or cells: yeast Y190

[3] = system: HEK293 cells; experiment: secretion of endogenous APP751 by HEK293 cells; format: cell-based; settings: HEK293 cells expressing PBP
Method: Western blotting, metabolic labeling and immunoprecipitation: For western blotting, cells were washed twice with ice-cold PBS and lysed in lysis buffer (1% Triton, 50 mM Hepes pH 7.5, 50 mM NaCl, 5 mM EDTA, 1 mM Na3VO4, 50 mM NaF, 10 mM Na4P2O7, plus a mixture of protease inhibitors (Complete Mini; Roche, Ind., USA). Protein concentrations were determined by Coomassie Plus (Pierce; IL, USA). The same amount of protein from each sample was separated on Novex pre-cast polyacrylamide gels (Invitrogen; CA, USA), and transferred to Immobulin membranes (Millipore; MA, USA). The membranes were blocked with 5% non-fat milk in Tris-buffered saline for 1 hour at room temperature. Following overnight incubation at 4° C. with primary antibodies, the antigens are detected with horseradish peroxidase-conjugated secondary antibodies (Bio-Rad; CA, USA; 1:20,000), an ECL kit (Amersham; NJ, USA), and exposed to films. For pulse-chase experiments, cells were grown to 80% confluency and incubated in methionine-free DMEM for 90 min. […] Protein concentrations were determined and the same amounts of proteins were immunoprecipitated with antibodies at 4° C. overnight 25 μl of anti-mouse IgG agarose (Roche) was then added to each sample and incubated at 4° C. for 2 hours on a rocker platform. […] The gels were dried and subjected to autoradiography and quantitated by NIH image. […]

Substance: PBP: novel 2027 amino acid protein, 233 kD, binds presenilins and Crk; expressed from cDNA in cells (KYGVVICSFRGSVPQGLVLEIGETVQILEKCEGWYRGVSTKKPNVKGLFPANYIHLK; listed as Mus musculus)
- interaction with PS1 [1]: interacts
- productive interaction with FAD mutant of PS1 (L392V) [2]: productive interactions did not occur
- secretion of endogenous APP751 [3]: reduced
